Data published in article PMC5756609.

Target: FcγR (on DIV 7 primary rat hippocampal cells, Erk phosphorylation assay)

ratio of pErk to Erk (western blot, percentage of vehicle controls) in DIV 7 hippocampal cell cultures exposed for 30 min to IgG-IC at 10 or 100 μg/ml; increased at 10 μg/ml but not at 100 μg/ml: 60.4
Substance: IgG immune complex (IgG-IC): pre-complexed mouse IgG and rat anti-mouse IgG, 1:1 ratio (w/w)
